In patent US20230203200A1 one finds fold weaker binding than the UCHT1-based TCER®-molecule, EC50 and EC50 (read off the curve) data, which are given here for two molecules.

Usually EC50 stands for the concentration that produces a half-maximal response. Usually EC50 (read off the curve) stands for the concentration giving half of the maximal effect.

The target in test [1] is TCR alpha/beta on Jurkat cells (human). The test can be described thus: flow cytometry on Jurkat cells (CD3+ and TCRab+), PE-labeled secondary reagent. Background: Flow cytometry measures light scatter and fluorescence of single cells or particles in a stream.
The target of test [2] is CD3 (CD3ε/δ-complex) on T cells (human) (UniProt P07766). The test is described as above.
Chain of UniProt P07766 (P07766 23-207, stated change not applied, chain 1 of 2): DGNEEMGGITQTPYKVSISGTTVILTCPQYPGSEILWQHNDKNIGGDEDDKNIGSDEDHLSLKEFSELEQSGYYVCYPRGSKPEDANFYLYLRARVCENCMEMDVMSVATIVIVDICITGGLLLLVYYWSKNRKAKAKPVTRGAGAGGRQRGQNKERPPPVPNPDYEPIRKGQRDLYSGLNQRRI
Chain of UniProt P07766 (P04234 22-171, stated change not applied, chain 2 of 2, further chain): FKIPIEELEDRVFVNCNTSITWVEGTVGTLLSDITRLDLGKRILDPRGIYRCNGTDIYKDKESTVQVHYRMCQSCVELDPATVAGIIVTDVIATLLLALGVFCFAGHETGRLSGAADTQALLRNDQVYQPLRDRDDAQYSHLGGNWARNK
Test [3] shares this target. Briefly: flow cytometry on Jurkat cells (CD3+, TCRab+), bound TCER stained with a PE-labeled secondary reagent.

B1: PRAME-004 targeting TCER® molecule with the recruiting domains of humanized BMA031(V10) (protein)
chain 1: QIQMTQSPSSLSASVGDRVTITCSATSSVSYMHWYQQKPGKAPKRWIYDTSKLASGVPSRFSGSGSGTDYTLTISSLQPEDAATYYCQQWSSNPLTFGGGTKVEIKGGGSGGGGKAGVTQTPRYLIKTRGQQVTLSCSPIPGHRSVSWYRQTPGQGLQFLFEYVHGEERNKGNFPGRFSGRQFSNSSSEMNISNLELGDSALYLCASSPWDSPNVQYFGPGTRLTVTEDLKNEPKSSDKTHTCPPCPAPPVAGPSVFLFPPKPKDTLMISRTPEVTCVVVDVSHEDPEVKFNWYVDGVEVHNAKTKPREEQYQSTYRVVSVLTVLHQDWLNGKEYKCKVSNKALPASIEKTISKAKGQPREPQVYTLPPCRDELTKNQVSLWCLVKGFYPSDIAVEWESNGQPENNYKTTPPVLDSDGSFFLYSKLTVDKSRWQQGNVFSCSVMHEALHNHYTQKSLSLSP
chain 2: QKEVEQNSGPLSVPEGAIASLNCTYSDRGSQSFFWYRQYSGKSPELIMSIYSNGDKKDGRFTAQLNKASQYVSLLIRDSQPSDSATYLCAAVIDNDQGGILTFGTGTRLTIIPNIQNGGGSGGGGEVQLVQSGAEVKKPGASVKVSCKASGYKFTSYVMHWVRQAPGQGLEWMGYINPYNDVTKYAEKFQGRVTLTSDTSTSTAYMELSSLRSEDTAVHYCARGSYYDYDGFVYWGQGTLVTVSSEPKSSDKTHTCPPCPAPPVAGPSVFLFPPKPKDTLMISRTPEVTCVVVDVSHEDPEVKFNWYVDGVEVHNAKTKPREEQYQSTYRVVSVLTVLHQDWLNGKEYKCKVSNKALPASIEKTISKAKGQPREPQVCTLPPSRDELTKNQVSLSCAVKGFYPSDIAVEWESNGQPENNYKTTPPVLDSDGSFFLVSKLTVDKSRWQQGNVFSCSVMHEALHNHYTQKSLSLSP
B1 displayed a fold weaker binding than the UCHT1-based TCER®-molecule in test [1] of 50 to 100 fold.

B2: PRAME-004 targeting TCER® molecule with the recruiting domains of humanized UCHT1(V17) (protein)
chain 1: QKEVEQNSGPLSVPEGAIASLNCTYSDRGSQSFFWYRQYSGKSPELIMSIYSNGDKEDGRFTAQLNKASQYVSLLIRDSQPSDSATYLCAAVIDNDQGGILTFGTGTRLTIIPNIQNGGGSGGGGDIQMTQSPSSLSASVGDRVTITCRASQDIRNYLNWYQQKPGKAPKLLIYYTSRLHSGVPSRFSGSGSGTDYTLTISSLQPEDIATYFCQQGQTLPWTFGQGTKVEIKEPKSSDKTHTCPPCPAPPVAGPSVFLFPPKPKDTLMISRTPEVTCVVVDVSHEDPEVKFNWYVDGVEVHNAKTKPREEQYQSTYRVVSVLTVLHQDWLNGKEYKCKVSNKALPASIEKTISKAKGQPREPQVYTLPPCRDELTKNQVSLWCLVKGFYPSDIAVEWESNGQPENNYKTTPPVLDSDGSFFLYSKLTVDKSRWQQGNVFSCSVMHEALHNHYTQKSLSLSPGK
chain 2: EVQLVQSGAEVKKPGASVKVSCKASGYSFTGYTMNWVRQAPGQGLEWMGLINPYKGVSTYAQKFQDRVTLTVDKSTSTAYMELSSLRSEDTAVYYCARSGYYGDSDWYFDVWGQGTLVTVSSGGGSGGGGKAGVTQTPRYLIKTRGQQVTLSCSPIPGHRAVSWYQQTPGQGLQFLFEYVHGEERNKGNFPGRFSGRQFSNSSSEMNISNLELGDSALYLCASSPWDSPNVQYFGPGTRLTVTEDLKNEPKSSDKTHTCPPCPAPPVAGPSVFLFPPKPKDTLMISRTPEVTCVVVDVSHEDPEVKFNWYVDGVEVHNAKTKPREEQYQSTYRVVSVLTVLHQDWLNGKEYKCKVSNKALPASIEKTISKAKGQPREPQVCTLPPSRDELTKNQVSLSCAVKGFYPSDIAVEWESNGQPENNYKTTPPVLDSDGSFFLVSKLTVDKSRWQQGNVFSCSVMHEALHNHYTQKSLSLSPGK
Regarding B2, in test [2], the EC50 lay in the range of 2 to 3 nM. The half-maximal effective concentration (EC50 (read off the curve)) in test [3] came to 2 nM.
